Test [1] addresses HAdV-D26 fiber-knob protein (human adenovirus D serotype 26). Description: crystal structure; sitting-drop vapour diffusion, 18 C, protein about 7.5 mg/ml in 10 mM Tris pH 8.0, 30 mM NaCl; data at 100 K, Diamond I04.
Test [2] addresses Recombinant Human CD46 Protein (His Tag) (human) (UniProt P15529). Briefly: SPR; BIAcore 3000, CM5 chip, about 5000 RU of receptor amine-coupled; equilibrium binding analysis of HAdV-D26K (367 uM) and HAdV-B3K (3 uM as printed), 5x 1:3 serial dilutions; 1:1 Langmuir fit; 25 C, PBS, 30 ul/min. On the technique in general: SPR reads the build-up and loss of mass on a sensor chip optically.

For test [3], the target named is Recombinant Human CXADR Fc Chimera Protein (CAR) (human) (UniProt P78310). Briefly: SPR; BIAcore 3000, CM5 chip, about 5000 RU of receptor (CD46, CAR or DSG2) amine-coupled; fiber-knob injected; single cycle kinetics, top concentration around 200 uM with four 1:3 dilutions; 25 C, PBS, 30 ul/min.
Test [4] deals with HAdV-D48 fiber-knob protein (human adenovirus D serotype 48). Description: crystal structure; sitting-drop vapour diffusion, 18 C, protein about 7.5 mg/ml in 10 mM Tris pH 8.0, 30 mM NaCl; data at 100 K, Diamond I04.
For test [5], the target named is Recombinant Human Desmoglein-2 Fc Chimera Protein (human) (UniProt Q14126). Description: SPR; BIAcore 3000, CM5 chip, about 5000 RU of receptor amine-coupled; equilibrium binding analysis of HAdV-D26K (367 uM) and HAdV-B3K (3 uM as printed), 5x 1:3 serial dilutions; 1:1 Langmuir fit; 25 C, PBS, 30 ul/min.
Recombinant Human Desmoglein-2 Fc Chimera Protein (human), sequence (Q14126 50-609, stated change not applied): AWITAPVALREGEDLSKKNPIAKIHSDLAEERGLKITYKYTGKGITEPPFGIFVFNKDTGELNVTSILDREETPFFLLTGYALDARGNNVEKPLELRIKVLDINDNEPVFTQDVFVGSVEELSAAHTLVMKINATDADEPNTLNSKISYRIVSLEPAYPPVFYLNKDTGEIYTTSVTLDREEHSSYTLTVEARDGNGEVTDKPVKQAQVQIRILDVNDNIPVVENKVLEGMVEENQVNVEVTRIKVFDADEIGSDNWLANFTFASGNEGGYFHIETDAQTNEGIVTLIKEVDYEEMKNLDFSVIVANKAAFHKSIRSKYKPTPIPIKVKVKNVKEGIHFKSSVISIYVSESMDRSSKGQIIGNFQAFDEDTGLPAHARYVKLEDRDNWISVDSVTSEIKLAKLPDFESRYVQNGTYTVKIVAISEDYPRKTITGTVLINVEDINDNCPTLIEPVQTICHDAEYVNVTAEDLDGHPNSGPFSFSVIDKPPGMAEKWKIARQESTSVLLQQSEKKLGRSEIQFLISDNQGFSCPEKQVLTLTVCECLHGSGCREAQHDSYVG
The target of test [6] is T1, Recombinant Human CXADR Fc Chimera Protein (CAR) (human, UniProt P78310).
T1 chain: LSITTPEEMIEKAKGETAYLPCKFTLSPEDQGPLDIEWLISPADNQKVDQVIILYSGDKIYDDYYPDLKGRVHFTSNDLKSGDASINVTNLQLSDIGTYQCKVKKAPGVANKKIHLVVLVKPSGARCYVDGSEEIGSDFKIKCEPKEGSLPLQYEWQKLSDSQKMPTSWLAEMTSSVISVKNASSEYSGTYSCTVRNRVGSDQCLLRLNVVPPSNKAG
Briefly: SPR.

The target of test [7] is T1, Recombinant Human CXADR Fc Chimera …. Briefly: SPR.
The target of test [8] is T2, Recombinant Human CXADR Fc Chimera Protein (CAR) (human, UniProt P78310).
T2 construct: human Coxsackie and Adenovirus Receptor (CXADR) part of a commercial Fc chimera; Probably the extracellular domain fused to human IgG1 Fc (recalled); source: bought: R&D Systems
T2 sequence: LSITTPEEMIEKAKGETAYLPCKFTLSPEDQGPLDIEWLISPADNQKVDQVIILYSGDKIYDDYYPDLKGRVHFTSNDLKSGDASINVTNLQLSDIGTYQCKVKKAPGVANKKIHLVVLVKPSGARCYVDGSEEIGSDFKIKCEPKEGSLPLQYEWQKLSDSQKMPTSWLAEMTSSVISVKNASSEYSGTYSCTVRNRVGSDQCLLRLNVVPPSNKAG
Briefly: SPR; BIAcore 3000, CM5 chip, about 5000 RU of receptor (CD46, CAR or DSG2) amine-coupled; fiber-knob injected; single cycle kinetics, top concentration around 200 uM with four 1:3 dilutions; 25 C, PBS, 30 ul/min. The settings on record: both partners purified.

The target in test [9] is T3, Recombinant Human CD46 Protein (His Tag) (human, UniProt P15529 35-343).
T3 chain: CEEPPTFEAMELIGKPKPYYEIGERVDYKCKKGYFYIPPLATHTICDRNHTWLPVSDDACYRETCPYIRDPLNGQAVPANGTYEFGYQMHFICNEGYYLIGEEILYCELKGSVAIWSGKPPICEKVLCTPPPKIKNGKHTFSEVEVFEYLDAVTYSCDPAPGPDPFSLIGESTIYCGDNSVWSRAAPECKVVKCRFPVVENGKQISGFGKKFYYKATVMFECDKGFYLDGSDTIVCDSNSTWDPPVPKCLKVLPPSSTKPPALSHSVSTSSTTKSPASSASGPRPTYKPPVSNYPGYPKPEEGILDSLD
Description: SPR.

Test [10] concerns the target T3, Recombinant Human CD46 Protein (His Tag). Description: SPR.

This note sets out measurements from article PMC6376029, “Diversity within the adenovirus fiber knob hypervariable loops influences primary receptor interactions” (Nature Communications, 2019).

One may read the stoichiometry N as a count of units in the complex or per binding partner. As usually defined, the Kd is the concentration at which binding is half-saturated. What is called koff is a measure of how fast the partners let go of each other.

“HAdV-D26 fiber-knob protein (domain or fragment)” returned a stoichiometry N in test [1] of 3. For the same molecule, in test [2], the fold weaker affinity (KD) than HAdV-B35K is > 1500 fold. In the case of “HAdV-D48 fiber-knob protein (domain or fragment)”, the fold higher affinity than HAdV-D26K in [3] was determined as 2 fold. Also, the stoichiometry N in test [4] was found to be 3. For the molecule “HAdV-B3 fiber-knob protein (from UniProt P04501 1-319) (domain or fragment)”, in test [5], the equilibrium dissociation constant (Kd) was 66.9 µM.

B1: HAdV-D26 fiber-knob protein (domain or fragment)
chain: RRTLWTTPDTSPNCKMSTEKDSKLTLTLTKCGSQVLGNVSLLAVTGEYHQMTATTKKDVKISLLFDENGILLPSSSLSKDYWNYRSDDSIVSQKYNNAVPFMPNLTAYPKPSAQNAKNYSRTKIISNVYLGALTYQPVIITIAFNQETENGCAYSITFTFTWQKDYSAQQFDVTSFTFSYLTQE
On to B1, for which the dissociation constant (Kd) in test [6] was 21 µM.

B2: HAdV-C5 fiber-knob protein (domain or fragment)
chain: KNNDKLTLWTTPAPSPNCRLNAEKDAKLTLVLTKCGSQILATVSVLAVKGSLAPISGTVQSAHLIIRFDENGVLLNNSFLDPEYWNFRNGDLTEGTAYTNAVGFMPNLSAYPKSHGKTAKSNIVSQVYLNGDKTKPVTLTITLNGTQETGDTTPSAYSMSFSWDWSGHNYINEIFATSSYTFSYIAQE
notes: fiber-knob domain of the fiber protein (pIV) of human adenovirus species C serotype 5; Vector pQE-30 probably adds an N-terminal His6 tag (surmised); also called HAdV-C5K; HAdV-C5 fiber-knob domain
On to B2, for which, in [7], the koff is 0.0016 s⁻¹. In addition, the Kd in [8] was 0.00076 µM.

B3: HAdV-D48 fiber-knob protein (domain or fragment)
chain: DKLTLWTTPDPSPNCKIDQDKDSKLTFVLTKCGSQILANMSLLVVKGKFSMINNKVNGTDDYKKFTIKLLFDEKGVLLKDSSLDKEYWNYRSNNNNVGSAYEEAVGFMPSTTAYPKPPTPPTNPTTPLEKSQAKNKYVSNVYLGGQAGNPVATTVSFNKETGCTYSITFDFAWNKTYENVQFDSSFLTFSYIAQE
In the case of B3, in [6], the Kd was found to be 9.3 µM. Also, the koff in test [7] is 0.0024 s⁻¹.

B4: HAdV-B35 fiber-knob protein (domain or fragment)
chain: TLWTGINPPPNCQIVENTNTNDGKLTLVLVKNGGLVNGYVSLVGVSDTVNQMFTQKTANIQLRLYFDSSGNLLTEESDLKIPLKNKSSTATSETVASSKAFMPSTTAYPFNTTTRDSENYIHGICYYMTSYDRSLFPLNISIMLNSRMISSNVAYAIQFEWNLNASESPESNIATLTTSPFFFSYITEDDN
Turning to B4, the koff in [9] was found to be 0.032 s⁻¹. The Kd in test [10] came to 0.027 µM.
